# According to patent US20180057604A1 (Genentech, published 2018):
# Residue numbers refer to the chain shown, from its start. In names and notes the source's numbering stands. Several values for one entry are separate records, joined by “and”; a condition that tells them apart may be missing. Equal values may be shown once. Read-outs that look alike come from different tables or passages of the source.
# B1: Hu15G11.v5.Fab (Fab, V domains shown)
# VH: EVQLVQSGAEVKKPGASVKVSCKASGYTFTSYWMHWVRQAPGQRLEWIGEINPTNGRTNYIEKFKSRATLTVDKSASTAYMELSSLRSEDTAVYYCARGTRAYHYWGQGTMVTVSS
# VL: DIQMTQSPSSLSASVGDRVTITCRASDNLYSNLAWYQQKPGKSPKLLVYDATNLADGVPSRFSGSGSGTDYTLTISSLQPEDFATYYCQHFWGTPLTFGQGTKVEIK
# notes: Fab
# B2: Anti-TfR1/6266.hIgG1.N297G (bispecific antibody, V domains shown)
# VH 1: B1 VH
# VL 1: B1 VL
# VH 2: EVQLVQSGAEVKKPGSSVKVSCKASGGTLSGYGVSWVRQAPGQGLEWMGNIIPGFGTANYAQKFQGRVTITADESTSTAYMELSSLRSEDTAVYYCARSGGTKYGMLDVWGQGTMVTVSS
# VL 2: EIVMTQSPATLSVSPGERATLSCRASQSVSSNLAWYQQKPGQAPRLLIYGASTRATGIPARFSGSGSGTEFTLTISSLQSEDFAVYYCQQLILWPPRTFGGGTKVEIK
# notes: Knob-in-hole human IgG1 with N297G
# B3: Hu15G11.HC52A Fab (Fab, V domains shown)
# VH: B1 VH with N52A
# VL: B1 VL
# notes: Fab; also called antiTfR.52A.Fab; 15G11.52A Fab
# Assays:
# [1] = target: T1, cyno TfR extracellular domain (analogous construct to human TfR ecd) (cynomolgus monkey, UniProt Q5RDH6 87-760 (Pongo abelii entry)); assay: SPR, TfR captured by anti-His, Fab injected;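 on KD: single cycle kinetics with a Fab dilution series, fitted by a one-to-one Langmuir model or a steady state model, KD taken as koff over kon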
# T1 construct: also called cynoTfR ecd
# T1 chain: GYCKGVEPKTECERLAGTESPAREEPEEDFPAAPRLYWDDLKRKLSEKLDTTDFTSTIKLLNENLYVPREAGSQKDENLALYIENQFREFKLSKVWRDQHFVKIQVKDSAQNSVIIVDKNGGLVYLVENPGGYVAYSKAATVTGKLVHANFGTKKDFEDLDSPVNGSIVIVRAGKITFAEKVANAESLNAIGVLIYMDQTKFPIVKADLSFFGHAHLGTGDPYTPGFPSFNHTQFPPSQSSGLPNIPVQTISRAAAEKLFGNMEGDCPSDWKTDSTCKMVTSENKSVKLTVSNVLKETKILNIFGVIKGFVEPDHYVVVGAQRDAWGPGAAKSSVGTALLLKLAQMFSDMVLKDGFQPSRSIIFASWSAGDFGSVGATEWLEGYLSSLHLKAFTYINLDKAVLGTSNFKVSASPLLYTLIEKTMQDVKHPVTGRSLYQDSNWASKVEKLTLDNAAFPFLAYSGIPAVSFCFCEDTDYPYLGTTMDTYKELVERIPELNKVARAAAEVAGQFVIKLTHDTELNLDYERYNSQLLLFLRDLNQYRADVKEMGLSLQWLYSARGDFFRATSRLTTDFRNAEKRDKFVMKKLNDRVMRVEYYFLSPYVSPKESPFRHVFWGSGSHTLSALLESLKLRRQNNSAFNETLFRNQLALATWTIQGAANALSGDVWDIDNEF
# Experimental: (§1) Antibody affinities were measured using surface plasmon resonance (“SPR”) (Biacore™, GE Healthcare). Anti-His antibody (Qiagen) was coupled onto four different flow cells of a BIACORE™ CM5 sensor chip (Biacore, Inc., Piscataway, N.J.) at between 6000 and 8000 RU. Immobilization was achieved by random coupling through amino groups using a protocol provided by the manufacturer. 10×HBS-P (Biacore, Inc., Piscataway, N.J.) was diluted in water and served as the dilution and running buffer. Purified human or cyno TfR was captured, followed by a 3-fold dilution series of IgG or Fab that was injected at a flow rate of 30 ml/min using the single cycle kinetics method. Affinity constants were determined using a simple 1:1 Langmuir binding model or using a steady state model when kₒₙ or koff was beyond the detection limit. The equilibrium dissociation constant (KD) was calculated as the ratio of association rate constant (kₒₙ) and dissociation rate constant (koff).
# (§2) In both cases, the SPR experiments were performed as described above.
# [2] = target: T2, human TfR extracellular domain with N-terminal His tag (human, UniProt P02786 89-760); assay: SPR, TfR captured by anti-His, Fab injected;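 on KD: single cycle kinetics with a Fab dilution series, fitted by a one-to-one Langmuir model or a steady state model, KD taken as koff over kon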
# T2 construct: Biotinylated in some assays; also called huTfR; HuTfR
# Target sequence in this assay (P02786 89-760 G142S): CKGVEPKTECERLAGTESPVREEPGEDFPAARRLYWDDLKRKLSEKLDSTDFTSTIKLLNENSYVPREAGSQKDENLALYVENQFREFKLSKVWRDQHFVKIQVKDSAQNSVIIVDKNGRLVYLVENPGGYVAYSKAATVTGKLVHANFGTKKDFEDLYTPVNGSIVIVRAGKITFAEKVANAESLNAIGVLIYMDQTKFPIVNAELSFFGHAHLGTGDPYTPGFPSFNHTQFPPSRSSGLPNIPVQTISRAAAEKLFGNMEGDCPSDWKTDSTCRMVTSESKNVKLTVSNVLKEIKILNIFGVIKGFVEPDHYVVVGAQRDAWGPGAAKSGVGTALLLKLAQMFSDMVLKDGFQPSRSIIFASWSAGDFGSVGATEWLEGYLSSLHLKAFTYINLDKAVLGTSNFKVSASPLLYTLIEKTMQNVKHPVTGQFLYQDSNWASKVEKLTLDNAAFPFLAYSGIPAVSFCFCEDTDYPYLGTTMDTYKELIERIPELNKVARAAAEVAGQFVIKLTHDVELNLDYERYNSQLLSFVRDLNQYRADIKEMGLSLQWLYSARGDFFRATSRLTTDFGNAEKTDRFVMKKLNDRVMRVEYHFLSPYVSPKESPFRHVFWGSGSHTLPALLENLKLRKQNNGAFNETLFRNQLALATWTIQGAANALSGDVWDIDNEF
# Experimental: as §1, §2
# [3] = target: T1, cyno TfR extracellular domain …; assay: SPR, TfR captured by anti-His, Fab injected;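 on KD: single cycle kinetics with a Fab dilution series, fitted by a one-to-one Langmuir model or a steady state model, KD taken as koff over kon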
# Experimental: as §1
# [4] = target: T2, human TfR extracellular domain with …; assay: SPR, TfR captured by anti-His, Fab injected; remark: listed apart in the source;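 on KD: single cycle kinetics with a Fab dilution series, fitted by a one-to-one Langmuir model or a steady state model, KD taken as koff over kon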
# Experimental: as §1
# [5] = target: T1, cyno TfR extracellular domain …; assay: SPR, KD on cyno TfR over KD on human TfR
# [6] = target: T1, cyno TfR extracellular domain …; assay: SPR, KD on cyno TfR over KD on human TfR
# [7] = target: T1, cyno TfR extracellular domain …; assay: SPR, Fab
# Experimental: as §1
# (§3) These variants were screened as IgG by ELISA and SPR to identify positions important for binding to human and cyno TfR; the monovalent affinity of selected variants as Fab was also determined. […] Plates were washed with PBS/0.05% Tween 20 and blocked using Superblock blocking buffer in PBS (Thermo Scientific, Hudson, N.H.). Supernatants containing expressed IgG were diluted serially 1:5 and added to the plate for 1 h. […] Plates were washed with PBS/0.05% Tween 20 and 1:1000 diluted HRP-Goat-anti kappa (Southern Biotech) was added the plate and incubated for 1 h at room temperature. Plates were washed with PBS/0.05% Tween 20 and detected using TMB substrate (BioFX Laboratories, Owings Mills). Binding was also assessed by SPR, as described above.
# [8] = target: T2, human TfR extracellular domain with …; assay: SPR, Fab
# Target sequence in this assay (P02786 89-760 G142S): as above
# Experimental: as §1, §3
# [9] = target: T1, cyno TfR extracellular domain …; assay: SPR, KD on cyno TfR over KD on human TfR
# Experimental: as §1, §2
# [10] = target: T1, cyno TfR extracellular domain …; assay: SPR, TfR captured by anti-His, Fab injected
# [11] = target: T2, human TfR extracellular domain with …; assay: SPR, TfR captured by anti-His, Fab injected; remark: listed apart in the source
# [12] = target: T1, cyno TfR extracellular domain …; assay: SPR, biotinylated TfR on streptavidin, bispecific injected
# Experimental: (§4) Affinity of the bispecific antibodies for human and cynomolgus monkey TfR was determined using surface plasmon resonance (SPR) (Biacore™, GE Healthcare). Streptavidin (Sigma) was coupled onto four different flow cells of a series S BIACORE™ CM5 sensor chip (Biacore, Inc., Piscataway, N.J.) at between 2000 and 3000 RU. Immobilization was achieved by random coupling through amino groups using a protocol provided by the manufacturer. 10×HBS-P (Biacore, Inc., Piscataway, N.J.) was diluted in water and served as the dilution and running buffer. Purified and biotin labeled human or cyno TfR was captured, followed by a 3-fold dilution series of bispecific antibody that was injected at a flow rate of 30 ml/min using the single cycle kinetics method. Affinity constants were determined using a simple 1:1 Langmuir binding model or using a steady state model when kₒₙ or koff was beyond the detection limit. The equilibrium dissociation constant (KD) was calculated as the ratio of association rate constant (kon) and dissociation rate constant (koff).
# [13] = target: T2, human TfR extracellular domain with …; assay: as above
# Experimental: as §4
# [14] = target: TfR (species not stated, Table 15); assay: SPR, Fab
binder,measurement,setting,value
B1,koff,[1],0.0127 s⁻¹
same,kon,[1],451000 M⁻¹ s⁻¹
same,koff,[2],0.00474 s⁻¹
same,kon,[2],674000 M⁻¹ s⁻¹
same,koff,[3],0.0127 s⁻¹
same,kon,[3],451000 M⁻¹ s⁻¹
same,koff,[4],0.00474 s⁻¹
same,kon,[4],674000 M⁻¹ s⁻¹
same,Cyno/human ratio,[5],4
same,Cy/hu ratio,[6],3.4
same,Kd,[7],16 nM
same,Kd,[8],4.7 nM
same,Cy/hu ratio,[9],4
same,koff,[10],0.0218 s⁻¹
same,kon,[10],1.41e+06 M⁻¹ s⁻¹
same,Kd,[11],4.7 nM
same,koff,[11],0.00406 s⁻¹ and 0.00364 s⁻¹
same,kon,[11],456000 M⁻¹ s⁻¹ and 776000 M⁻¹ s⁻¹
B2,Kd,[12],23.7 nM
same,Kd,[13],9 nM
B3,Kd,[14],55 nM
